Target: BLV nucleocapsid protein (NC) (Bovine leukemia virus, UniProt P03344)
Assay: ITC

Sequence of BLV nucleocapsid protein (NC) (P03344 324-392, tags left off): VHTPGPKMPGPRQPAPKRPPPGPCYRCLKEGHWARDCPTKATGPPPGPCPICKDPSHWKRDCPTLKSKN

## CAACUCUCUG (ssRNA) [SLV-VI linker (10 nt)]
  Kd: 92 ± 16 nM

Reference: article PMC3514405
